Fewer inactive variants are shown than the library holds.
Tests used:
biotinyl-Ile-oxazolone = test: self-aminoacylation, catalytic enhancement (BIO) (fold over background); higher = more active; k-Seq, kA / k0A0; sequences stand for … in GGGAAUGGAUCCACAUCUACGAAUUC…UUCACUGCAGACUUGACGAAGCUG
Outline: (§1)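 Working in 50 μL HEPES/NaCl/KCl/MgCl2/CaCl2 buffer with 5% acetonitrile at pH 6.9–7.0, mutagenized RNA pools (0.43 μM; 21-nt variable region) were reacted with 2–1250 μM of each biotinyl-aminoacyl-oxazolone for 90 minutes at room temperature. Streptavidin capture followed, with quantification by triplicate qPCR and Illumina sequencing. Catalytic enhancement is reported as median kA over the uncatalyzed rate, the low-activity peak of a bimodal Gaussian fit to the data.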

biotinyl-Leu-oxazolone = test: self-aminoacylation, catalytic enhancement (BLO) (fold over background); higher = more active; k-Seq, kA / k0A0; sequences stand for … in GGGAAUGGAUCCACAUCUACGAAUUC…UUCACUGCAGACUUGACGAAGCUG
Outline: as §1

biotinyl-Met-oxazolone = test: self-aminoacylation, catalytic enhancement (BMO) (fold over background); higher = more active; k-Seq, kA / k0A0; sequences stand for … in GGGAAUGGAUCCACAUCUACGAAUUC…UUCACUGCAGACUUGACGAAGCUG
Outline: as §1

biotinyl-Trp-oxazolone = test: self-aminoacylation, catalytic enhancement (BWO) (fold over background); higher = more active; k-Seq, kA / k0A0; sequences stand for … in GGGAAUGGAUCCACAUCUACGAAUUC…UUCACUGCAGACUUGACGAAGCUG
Outline: as §1

biotinyl-Phe-oxazolone = test: self-aminoacylation, catalytic enhancement (BFO) (fold over background); higher = more active; k-Seq, kA / k0A0; sequences stand for … in GGGAAUGGAUCCACAUCUACGAAUUC…UUCACUGCAGACUUGACGAAGCUG
Outline: as §1

biotinyl-Val-oxazolone = test: self-aminoacylation, catalytic enhancement (BVO) (fold over background); higher = more active; k-Seq, kA / k0A0; sequences stand for … in GGGAAUGGAUCCACAUCUACGAAUUC…UUCACUGCAGACUUGACGAAGCUG
Outline: as §1

Sequence | self-aminoacylation (biotinyl-Ile-oxazolone) | self-aminoacylation (biotinyl-Leu-oxazolone) | self-aminoacylation (biotinyl-Met-oxazolone) | self-aminoacylation (biotinyl-Trp-oxazolone) | self-aminoacylation (biotinyl-Phe-oxazolone) | self-aminoacylation (biotinyl-Val-oxazolone)
AAGUUUGCUAAUAGUCACAAG [Fam3.1 aminoacylation ribozyme variant] | 1.47 | 1.21 | 1.45 | 4.08 | 12.3 | 1.35
AAGUUUGCUAAUAGUCACAAU [Fam3.1 aminoacylation ribozyme variant] | 1.18 | 0.82 | 1.18 | 1.11 | 1.14 | 1.19
AAGUUUGCUAAUAGUCAGAAG [Fam3.1 aminoacylation ribozyme variant] | 0.943 | 0.808 | 1.01 | 2.22 | 2.61 | 0.937
AAGUUUGCUAAUAGUCCCACG [Fam3.1 aminoacylation ribozyme variant] | 0.727 | 0.838 | 0.931 | 0.714 | 0.69 | 0.679
AAGUUUGCUAAUAGUCCCAUG [Fam3.1 aminoacylation ribozyme variant] | 0.978 | 0.89 | 0.887 | 1.19 | 0.885 | 1.13
AAGUUUGCUAAUAGUCCCCAG [Fam3.1 aminoacylation ribozyme variant] | 1 | 0.928 | 1.01 | 1.69 | 1.27 | 0.901
AAGUUUGCUAAUAGUCGAAAG [Fam3.1 aminoacylation ribozyme variant] | 1.38 | 1.14 | 1.47 | 5.4 | 17.9 | 1.22
AAGUUUGCUAAUAGUCGCAAU [Fam3.1 aminoacylation ribozyme variant] | 1.42 | 1.19 | 1.25 | 1.22 | 1.68 | 1.26
AAGUUUGCUAAUAGUCGCAUA [Fam3.1 aminoacylation ribozyme variant] | 1.21 | 0.954 | 0.936 | 1.23 | 1.58 | 1.22
AAGUUUGCUAAUAGUCGCGAC [Fam3.1 aminoacylation ribozyme variant] | 0.944 | 0.907 | 1 | 1.19 | 1.05 | 0.909
AAGUUUGCUAAUAGUCGCGGG [Fam3.1 aminoacylation ribozyme variant] | 4.43 | 4.5 | 4.13 | 4.82 | 19.6 | 3.77
AAGUUUGCUAAUAGUCGCUAA [Fam3.1 aminoacylation ribozyme variant] | 1.33 | 1.2 | 1.13 | 1.53 | 1.96 | 1.21
AAGUUUGCUAAUAGUCGCUCG [Fam3.1 aminoacylation ribozyme variant] | 0.706 | 0.647 | 0.815 | 0.853 | 0.809 | 0.657
AAGUUUGCUAAUAGUCGUUAG [Fam3.1 aminoacylation ribozyme variant] | 0.822 | 0.801 | 0.676 | 1.05 | 2.27 | 1.07
AAGUUUGCUAAUAGUCUAAAG [Fam3.1 aminoacylation ribozyme variant] | 1.28 | 0.882 | 0.959 | 1.9 | 5.62 | 1.28
AAGUUUGCUAAUAGUCUGAAG [Fam3.1 aminoacylation ribozyme variant] | 1.01 | 0.996 | 0.971 | 1.34 | 3.77 | 1.07
AAGUUUGCUAAUAGUCUUAAG [Fam3.1 aminoacylation ribozyme variant] | 1.16 | 1.11 | 1.24 | 6.3 | 25.7 | 1.11
AAGUUUGCUAAUAGUGGCAAC [Fam3.1 aminoacylation ribozyme variant] | 0.805 | 0.783 | 0.737 | 0.575 | 0.826 | 0.822
AAGUUUGCUAAUAGUGGCAUG [Fam3.1 aminoacylation ribozyme variant] | 0.823 | 0.754 | 0.821 | 0.862 | 1.1 | 0.772
AAGUUUGCUAAUAGUGGGAAG [Fam3.1 aminoacylation ribozyme variant] | 0.841 | 0.876 | 0.971 | 0.598 | 1.48 | 1.03
AAGUUUGCUAAUAGUUGCAAU [Fam3.1 aminoacylation ribozyme variant] | 1.26 | 0.88 | 1.15 | 1.29 | 1.25 | 1.31
AAGUUUGCUAAUAGUUGCACG [Fam3.1 aminoacylation ribozyme variant] | 1.11 | 1.1 | 1.31 | 1.75 | 1.38 | 1.14
AAGUUUGCUAAUAGUUGCAUG [Fam3.1 aminoacylation ribozyme variant] | 0.96 | 1.14 | 0.831 | 0.685 | 1.14 | 0.934
AAGUUUGCUAAUAGUUGUAAG [Fam3.1 aminoacylation ribozyme variant] | 1.29 | 1.12 | 1.48 | 1.55 | 2.23 | 1.28
AAGUUUGCUAAUAUCCGCAAG [Fam3.1 aminoacylation ribozyme variant] | 0.911 | 0.845 | 0.725 | 0.739 | 1.18 | 0.886
AAGUUUGCUAAUCGACGCAAG [Fam3.1 aminoacylation ribozyme variant] | 0.534 | 0.477 | 0.581 | 0.72 | 0.783 | 0.547

— the supplement of paper PMC9233669
